Test results published in patent US20210162028A1, “Methods for Inducing Intermittent Fasting and Modulating Autophagy” (The Hong Kong Polytechnic University, priority 2019, published 2021).
Entries after “also recorded” stand apart in the source; their conditions may differ.

Legend:
Type in all cases: in vivo, mouse
[1] = Survival of very old mice; conditions: 25-month old C57BL/6J male mice on chow diet; weekly for 30 weeks; vehicle 20%
Excerpt: Specific autophagy upregulation in Caenorhabditis elegans and Drosophila extends lifespan, and drugs that induce autophagy, such as rapamycin, promote longevity in rodents (Hansen et al., Nature Reviews Molecular Cell Biology. 2018; 19:579-593). For C57BL/6J mice, over 24 months of age can be considered “very old” and survivorship drops off markedly (https://www.jax.org/news-and-insights/jax-blog/2017/november/when-are-mice-considered-old). To determine whether N-ABD094-rhArg (SEQ ID NO: 50), which induces systemic upregulation of autophagy, can increase longevity, very old C57BL/6J male mice at 25 months of age (equivalent to seventy in humans) fed an ordinary chow diet were separated into 2 groups. One group was treated once weekly with 600 U N-ABD094-rhArg (SEQ ID NO: 50) [CD Very Old (rhArg) group] for 30 weeks while another group was treated with vehicle [CD Very Old (vehicle) group]. A group of C57BL/6J male mice at 7 months of age (equivalent to early thirties in humans) treated with vehicle [CD Young (vehicle) group] served as the reference of progressive changes from mature adult to late middle age over the 30-week period.

[2] = Hepatic steatosis (oil Red O / H&E staining, liver triglyceride); conditions: DIO C57BL/6J male mice on HFD; for Lipid in liver (H&E staining): 11 weeks after treatment
[3] = Bodyweight of treated mice
[4] = Barnes maze test for spatial learning and memory; conditions: DIO C57BL/6J male mice on HFD; weekly, at 43-44 weeks of treatment
Procedure: To determine whether N-ABD094-rhArg [SEQ ID NO: 50], which can induce repetitive intermittent fasting cycles, has beneficial effects on cognitive performance, the Barnes maze test was conducted over ten days to evaluate spatial learning and memory function. The test was performed on a flat circular platform (100 cm in diameter, 1.5 cm thick, elevated 40 cm above the floor) with twenty evenly-spaced holes (7 cm in diameter) distributed around the circumference, and an escape box was placed under one of the holes. Prior to experimentation, each mouse was guided to the specific hole that was positioned over the escape box and left for 180 seconds. Subsequently, each mouse was trained to find the escape hole by placing the mouse in the center of the platform under a small black chamber for three seconds, the chamber was then lifted, and mouse was allowed to find the escape hole within 180 seconds. The platform was brightly illuminated and cooled using a desk fan as adverse stimuli. If the mouse was unable to find the target hole in the allowed time, it was guided to the escape box. Two trials were performed each day for four consecutive days as training period, after which the short- and long-term spatial memory of the mouse was probed on Day 5 and Day 10 respectively, by removing the escape box and allowing them to explore the platform for a full 180 seconds. Each trial was recorded directly over the platform. For each trial on Day 1 to 4, the time required to find the escape hole and exit the platform, and the type of exploratory pattern (random, serial, or direct) in exploring were recorded. For each probe trial on Day 5 and 10, the number of times the mice investigated each of the twenty holes was recorded over 180 seconds, with an instance of investigation defined as the localization of the snout inside a given hole.
Spatial memory loss is a prominent feature in rodent models of type 2 diabetes and obesity [Boitard et al., 2014; Underwood and Thompson, 2016]. To investigate whether arginase treatment could prevent spatial memory loss in mice fed a HFD, DIO C57BL/6J male mice were subjected to assessment of spatial memory by Barnes maze test at 43 weeks after receiving weekly administration of N-ABD094-rhArg (SEQ ID NO: 50) starting from 17-week old.

B1: N-ABD094-rhArg: recombinant human arginase fused to albumin binding domain ABD094 (SEQ ID NO: 50); engineered long-acting arginine-depleting enzyme (protein)
chain: MHHHHHHDEAVDANSLAEAKEAANAELDSYGVSDFYKRLIDKAKTVEGVEALKDAILAALPSGSNNNNNNGSGGMSAKSRTIGIIGAPFSKGQPRGGVEEGPTVLRKAGLLEKLKEQECDVKDYGDLPFADIPNDSPFQIVKNPRSVGKASEQLAGKVAEVKKNGRISLVLGGDHSLAIGSISGHARVHPDLGVIWVDAHTDINTPLTTTSGNLHGQPVSFLLKELKGKIPDVPGFSWVTPCISAKDIVYIGLRDVDPGEHYILKTLGIKYFSMTEVDRLGIGKVMEETLSYLLGRKKRPIHLSFDVDGLDPSFTPATGTPVVGGLTYREGLYITEEIYKTGLLSGLDIMEVNPSLGKTPEEVTRTVNTAVAITLACFGLAREGNHKPIDYLNPPK
modifications: N-ABD094-rhArg, Synthesized in the Lab
notes: engineered long-acting arginine-depleting enzyme
Survival rate [1]: 80%
Lipid droplets in liver (oil Red O) ([2]; 600 U once a week, 12 weeks): dramatic clearance of lipid droplets
Liver triglyceride concentrations ([2]; 600 U once a week, 12 weeks): reduced to a level similar to the lean control
Lipid in liver (H&E staining) ([2]; rhArg and/or RA): significant effect on diminishing lipid in liver
Lipid in liver (H&E staining) ([2]; rhArg and/or metformin): slight effect of diminishing lipid in liver
Drop of bodyweight ([3]; 16-month old DIO C57BL/6J male mice on HFD, about 68 g prior to treatment, once a week, 25 weeks): 50%
Bodyweight maintained for the rest of the treatment period ([3]; 16-month old DIO C57BL/6J male mice on HFD, about 600 U once a week, 25 weeks): around 30 g
Bodyweight reached and maintained under treatment ([3]; 17-month old C57BL/6J male mice on chow diet, about 600 U once a week, 21 weeks, from 40 g): 30 g
Bodyweight reached and maintained under treatment ([3]; 25-month old C57BL/6J male mice on chow diet, about 600 U once a week, from 45 g within 3 weeks): 30 g
Change in bodyweight under single treatment ([3]; DIO C57BL/6J male mice on HFD, 300 U rhArg once a week alone or 300 mg/kg metformin daily alone): stable body weight without further increase in body mass
Change in bodyweight under single treatment ([3]; DIO C57BL/6J male mice on HFD, 300 U rhArg once a week alone or 300 mg/kg metformin daily alone, listed as rhArg): could only prevent further gain in bodyweight, but did not result in weight loss
Change in bodyweight ([3]; DIO C57BL/6J male mice on HFD, 600 U i.p. once a week, 5 weeks (artificial IF experiment)): substantial weight loss
Decrease of bodyweight by the end of treatment ([3]; DIO C57BL/6J male mice on HFD, 600 U i.p. once a week, 5 weeks (reduced daily food intake experiment)): 44%
Reduction of bodyweight ([3]; DIO C57BL/6J male mice on HFD, about 600 U i.p. once a week, within 6-7 weeks): 40%
Bodyweight reached and maintained under treatment ([3]; DIO C57BL/6J male mice on HFD, about 600 U once a week, 49 weeks, from 50 g within 6-7 weeks): around 30 g
Bodyweight reached and maintained under treatment ([3]; DIO C57BL/6J male mice on HFD, about 600 U once a week, 49 weeks, from 50 g within 6-7 weeks, listed as rhArg): 30 g
Change in bodyweight under single treatment ([3]; DIO C57BL/6J male mice on HFD, rhArg once a week alone or 0.33 mg RA daily alone): stable body weight without further increase
Change in bodyweight under single treatment ([3]; DIO C57BL/6J male mice on HFD, rhArg once a week alone or 0.33 mg RA daily alone, listed as rhArg): could only prevent further gain in bodyweight, but did not result in weight loss
Decrease of bodyweight ([3]; DIO ICR female mice on HFD, 1200 U i.p. once a week, within 9-10 weeks): 30%
Bodyweight maintained for the rest of the treatment period ([3]; DIO ICR female mice on HFD, about 1200 U once a week, 56 weeks): around 35 g
Barnes maze: exploratory pattern (search mode) on Day 1 [4]: predominately used a serial-type exploratory pattern; also recorded: significantly improve their search mode
Barnes maze: latency to exit the platform in training period [4]: could exit the platform significantly earlier than HFD-fed mice treated with vehicle; also recorded: significantly reduce the total latency
Barnes maze: probe trial Day 5 (short-term memory) [4]: explored the holes nearest to the target in increasing frequency with the target hole being the most-explored hole
Barnes maze: probe trial Day 10 (long-term memory) [4]: Such trends were maintained on Day 10
